Laboratory results: patent publication US10577406B2, “FKBP-L polypeptides and uses in angiogenesis-mediated disorders” (ALMAC DISCOVERY LIMITED, priority 2006, dated 2020)

What was measured:
[1] = tested on: MDA231 (breast tumor cell line; CD44 +ve); experiment: tumor cell migration, wound closure assay, MDA231; type: cell-based
Method: In these experiments, the effect of recombinant FKBP-L on tumor cell migration was assessed. The in vitro migration assay used in these studies is a modified version of the method described by Ashton et al (1999) see supra. PC3, MDA231, and HT29 tumor cells were plated into individual chambers on a glass slide and grown to 90% confluence overnight. The medium was removed and the monolayers wounded. The monolayer was re-supplemented with fresh medium and the required volume of His-tagged recombinant FKBP-L protein (SEQ ID NO: 1) was added to give the final concentrations shown. The monolayers were incubated for 24 hours and then fixed in 4% PBS buffered paraformaldehyde.
The extent of “wound” closure was blindly assessed microscopically by an independent investigator and quantified using a calibrated eyepiece graticule (1 mm/100 μm graduation) at 20× magnification (Olympus BX 50). The extent of closure in the FKBP-L treated slides was compared to time matched sham-treated controls and the percent inhibition of wound closure compared to time matched controls calculated. […]
The extent of “wound” closure was blindly assessed microscopically by an independent investigator and quantified using a calibrated eyepiece graticule (1 mm/100 μm graduation) at 20× magnification (Olympus BX 50). […]

HMEC-1 = experiment: in vitro migration assay (wound closure / wound scrape), recombinant protein or peptides added to medium; type: cell-based, Human
Method: (§1) The in vitro migration assay used in these studies is a modified version of the method described by Ashton et al (1999). HMEC-1 were plated into individual chambers on a glass slide and grown to 90% confluence overnight. The medium was removed and the monolayer wounded. The monolayer was re-supplemented with fresh medium and the required volume of recombinant full length his-tagged FKBP-L protein (SEQ ID NO: 1) was added to give the required final concentration.
The monolayers were incubated for 7 hours after exposure to recombinant FKBP-L protein and then fixed in 4% PBS buffered paraformaldehyde. The extent of “wound” closure was blindly assessed microscopically by an independent investigator and quantified using a calibrated eyepiece graticule (1 mm/100 μm graduation) at 20× magnification (Olympus BX 50). The extent of closure in the FKBP-L treated slides was compared to time matched sham treated controls and the % inhibition of wound closure compared to time matched controls calculated.
The following studies were performed to determine the effect of a full length His-tagged recombinant FKBP-L protein on the wound closure assay measured as a function of time. Again, the in vitro migration assay used in these studies is a modified version of the method described by Ashton et al (1999). HMEC-1 were plated into individual chambers on a glass slide and grown to 90% confluence overnight. The medium was removed and the monolayer wounded. The monolayer was re-supplemented with fresh medium and the required volume of full length his-tagged recombinant FKBP-L (i.e., SEQ ID NO: 1) added to give the required final concentration 750 ngml^−1.
Slides were removed at fixed time points until complete closure of the wound, then fixed in 4% PBS buffered paraformaldehyde. The extent of “wound” closure was blindly assessed microscopically by an independent investigator and quantified using a calibrated eyepiece graticule (1 mm/100 μm graduation) at 20× magnification (Olympus BX 50). The extent of closure in the FKBP-L treated slides was compared to time matched sham treated controls and the % inhibition of wound closure compared to time matched controls calculated.
as §1, with “al. (1999) see supra.” for “al (1999).”, “the following peptides” for “recombinant full length his-tagged FKBP-L protein (SEQ ID NO: 1)”, “achieve a dose range from 10^−14-10^−6 M.” for “give the required final concentration.”
The monolayers were incubated for 7 h and then fixed in 4% PBS buffered paraformaldehyde. The extent of “wound” closure was blindly assessed microscopically by an independent investigator and quantified using a calibrated eyepiece graticule (1 mm/100 μm graduation) at 20× magnification (Olympus BX 50). The extent of closure in the FKBP-L treated slides was compared to time matched sham treated controls and the % inhibition of wound closure compared to time matched controls calculated.
The in vitro migration assay used in these studies is a modified version of the method described by Ashton et al. (1999) see supra. HMEC-1 were plated into individual chambers on a glass slide and grown to 90% confluence overnight. The medium was removed and the monolayers wounded. The monolayer was re-supplemented with fresh medium and the required volume of each peptide (i.e., peptides 1-17, SEQ ID NOS: 12-28; Table 4 below) was added to give the required final concentration (10^−14-10^−6 M).
The monolayers were incubated for 24 h and then fixed in 4% PBS buffered paraformaldehyde. The extent of “wound” closure was blindly assessed microscopically by an independent investigator and quantified using a calibrated eyepiece graticule (1 mm/100 μm graduation) at 20× magnification (Olympus BX 50). […]

[2] = tested on: DU145 (prostate tumor cell line; CD44 −ve); experiment: tumor cell migration, wound closure assay, DU145; type: cell-based, human; settings: 24 h
Method: The in vitro migration assay used in these studies is a modified version of the method described by Ashton et al. (1999) see supra. PC3 (prostate tumor cell line; CD44 positive; CD44 +ve), MDA231 (breast tumor cell line; CD44 +ve), HT29 (Colorectal tumor cell line; CD44 +ve), MCF-7 (breast tumor cell line; CD44 negative; CD44 −ve) and DU145 (prostate tumor cell line; CD44 −ve) were plated into individual chambers on a glass slide and grown to 90% confluence overnight. The medium was removed and the monolayers wounded. […] The monolayers were incubated for 24 h and then fixed in 4% PBS buffered paraformaldehyde.
The extent of “wound” closure was blindly assessed microscopically by an independent investigator and quantified using a calibrated eyepiece graticule (1 mm/100 μm graduation) at 20× magnification (Olympus BX 50). The extent of closure in the FKBP-L treated slides was compared to time matched sham treated controls and the % inhibition of wound closure compared to time matched controls calculated.

With “H-QIRQQPRDPPTETLELEVSPDPAS-OH [FKBP-L 24mer]” the “effect on tumor cell migration” value ([1]; MDA-231, 10^−14-10^−7 M, 24 h) was “can inhibit” and the “potency compared with the full length recombinant protein on a mole/mole basis” value (HMEC-1; wound scrape, 7 h) was “increased potency”.

B1: full length recombinant FKBP-L: recombinant full length his-tagged FKBP-L protein (SEQ ID NO: 1) expressed in BL21 (DE3) (protein, listed as Homo sapiens)
chain: MRGSHHHHHHGMASMTGGQQMGRDLYDDDDKDRWGSMETPPVNTIGEKDTSQPQQEWEKNLRENLDSVIQIRQQPRDPPTETLELEVSPDPASQILEHTQGAEKLVAELEGDSHKSHGSTSQMPEALQASDLWYCPDGSFVKKIVIRGHGLDKPKLGSCCRVLALGFPFGSGPPEGWTELTMGVGPWREETWGELIEKCLESMCQGEEAELQLPGHTGPPVGLTLASFTQGRDSWELETSEKEALAREERARGTELFRAGNPEGAARCYGRALRLLLTLPPPGPPERTVLHANLAACQLLLGQPQLAAQSCDRVLEREPGHLKALYRRGVAQAALGNLEKATADLKKVLAIDPKNRAAQEELGKVVIQGKNQDAGLAQGLRKMFG
modifications: His tag
B1 was tested, and the “effect on tumor cell migration” value ([1]; MDA231, 24 hours) was “inhibits tumor cell migration in a dose-dependent manner”, the “delay of 50% wound closure versus control” value (HMEC-1; 750 ngml^−1) was 9 h and the “time until 50% wound closure” value (HMEC-1; 750 ngml^−1, single administration, control 7 hours) was 16 h. For the same molecule, the “inhibition of HMEC-1 migration into the denuded area of the monolayer compared to time matched controls” value (HMEC-1; 750 ngml^−1, 7 hours) was 60%, the “time until which the wound remained open (total wound closure)” value (HMEC-1; 750 ngml^−1, control 16 hours) was 34 h and the “optimum concentration for inhibition of migration” value (HMEC-1; 7 hours) was 750 ngml^−1. For the same molecule, the “dose effective to prevent cell migration” value (HMEC-1; FIG. 4 dose response) was 10^−6 M and the “effect on tumor cell migration” value [2] was “not in CD44 −ve tumor cell lines”.
